In patent US20240270853A1 (Chugai, published 2024):

T1: full length mouse DDR2 (stably expressed on Ba/F3 cell line) (mouse, UniProt Q62371 22-854)
T1 construct: also called moDDR2
T1 sequence: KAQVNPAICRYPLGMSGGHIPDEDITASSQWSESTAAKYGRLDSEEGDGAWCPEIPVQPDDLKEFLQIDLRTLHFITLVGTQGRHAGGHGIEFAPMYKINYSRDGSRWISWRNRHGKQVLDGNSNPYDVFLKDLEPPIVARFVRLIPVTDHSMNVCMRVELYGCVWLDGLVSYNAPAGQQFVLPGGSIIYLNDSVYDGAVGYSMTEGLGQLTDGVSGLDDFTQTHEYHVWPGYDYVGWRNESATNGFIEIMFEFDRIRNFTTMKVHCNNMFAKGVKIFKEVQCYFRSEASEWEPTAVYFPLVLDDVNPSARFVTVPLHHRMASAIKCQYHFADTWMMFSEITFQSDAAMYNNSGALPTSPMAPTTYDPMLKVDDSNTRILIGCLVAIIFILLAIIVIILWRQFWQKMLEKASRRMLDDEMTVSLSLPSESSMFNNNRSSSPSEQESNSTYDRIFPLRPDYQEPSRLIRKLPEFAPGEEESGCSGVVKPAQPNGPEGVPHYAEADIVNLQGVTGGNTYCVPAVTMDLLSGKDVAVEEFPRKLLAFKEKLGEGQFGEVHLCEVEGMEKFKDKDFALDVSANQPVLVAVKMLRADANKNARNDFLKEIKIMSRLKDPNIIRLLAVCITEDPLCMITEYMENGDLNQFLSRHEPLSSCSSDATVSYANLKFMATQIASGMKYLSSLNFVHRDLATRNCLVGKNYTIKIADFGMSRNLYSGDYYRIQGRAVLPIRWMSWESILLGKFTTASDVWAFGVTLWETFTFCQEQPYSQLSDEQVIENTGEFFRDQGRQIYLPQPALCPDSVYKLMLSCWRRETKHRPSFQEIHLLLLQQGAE

T2: mouse DDR2 delta DSL-EJXM (stably expressed on Ba/F3 cell line) (mouse, UniProt Q62371 22-854)
T2 construct: Full length mouse DDR2 with Gln201-Val393 deleted; also called mouse DDR2 fragment with DSL domain and EJXM region (Gln201-Val393) deleted
T2 sequence: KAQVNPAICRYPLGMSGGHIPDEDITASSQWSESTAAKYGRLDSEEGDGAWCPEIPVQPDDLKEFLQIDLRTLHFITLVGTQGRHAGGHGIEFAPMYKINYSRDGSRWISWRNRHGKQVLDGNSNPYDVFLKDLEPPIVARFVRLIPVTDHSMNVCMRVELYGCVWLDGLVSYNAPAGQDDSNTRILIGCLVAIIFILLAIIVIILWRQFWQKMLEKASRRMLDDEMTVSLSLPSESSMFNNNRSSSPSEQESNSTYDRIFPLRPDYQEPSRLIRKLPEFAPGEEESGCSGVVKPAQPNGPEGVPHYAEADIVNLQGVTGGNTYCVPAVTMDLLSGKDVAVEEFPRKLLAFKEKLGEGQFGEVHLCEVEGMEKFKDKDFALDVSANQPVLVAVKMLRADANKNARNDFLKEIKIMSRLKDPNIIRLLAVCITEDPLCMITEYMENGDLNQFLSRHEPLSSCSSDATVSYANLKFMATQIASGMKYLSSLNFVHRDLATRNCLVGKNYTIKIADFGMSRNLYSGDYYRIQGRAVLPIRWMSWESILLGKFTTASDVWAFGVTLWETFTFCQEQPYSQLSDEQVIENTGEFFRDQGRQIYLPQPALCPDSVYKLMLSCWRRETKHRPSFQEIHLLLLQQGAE

B1: DAB0009 (antibody, V domains shown)
VH: QSVEESGGRLVTPGTPLTLTCAVSGFSLNSHVMGWVRQAPGRGLECIGIIAVSGDIYYANWAKGRFTISKTSTTVDLRITSPTTEDTATYFCGSPTVINNNNLWGQGTLVTVSS
VL: AQVLTQTASPVSAAVGGTVTINCQSSQNVYGNNYLSWFQQKPGQPPKLLIYSTSTLASGVSSRFKGSGSGTQFTLTISDLECADAATYYCLGGYDCNIVDCRAFGGGTKVEIK
notes: Variable regions from immunized rabbits
B2: DAB0071 (antibody, V domains shown)
VH: QSLEESGGRLVTPGGSLTLTCTASGFSLSAYYMQWVRQAPGKGLEWIGWINTGGSAYYPSWARGRFTISKTSTTVDLKITSPTTEDTATYFCARSDASVHQFNLWGQGTLVTVSS
VL: DVVMTQTPASVEAAVGGTVTIKCQASESIGNALAWYQQRPGQPPKLLIYYASTLESGVPSRFKGSGSGTEFTLTISDLECADAATYYCQCTYGSGSSRGNAFGGGTKVEIK
notes: as for B1
B3: DAB0052 (antibody, V domains shown)
VH: QSVEESGGRLVTPGTPLTLTCTVSGFSLNRYTGIWVRQAPGKGLEWIGIISSDDRTWYASWAKGRFTISKTSTTVDLKITSPTIEDTATYFCARDVGGDSWFWGLWGQGTLVTVSS
VL: DIVMTQTPASVEAAVGGTVTIKCQASQSISSWLAWYQQKPGQPPKLLIYYASTLASGVPSRFSGSGSGTEFTLTISDLECADAATYYCQSNYYSSSNSNYGHAFGGGTKVEIK
notes: as for B1

target: T1, full length mouse DDR2 (stably …); test: flow cytometry on Ba/F3 cells expressing full length mouse DDR2, one-arm format
Experimental: (§1) Mean Fluorescent Intensity (MFI) of each antibody was measured by flow cytometry using Ba/F3 cell line that stably expresses full length mouse DDR2. Names under the horizontal axis are names of the tested antibodies. IC17dK is an anti-KLH antibody used as a negative control.
To determine antibody binding to mouse DDR2, flow cytometry analysis was carried out by using mouse-DDR2-stably-expressing Ba/F3 cell line. One-arm format antibodies, which contains one antibody variable region in each molecule, were prepared to evaluate the binding by affinity mode.

Binder	binding result
B1	binds
B2	binds
B3	binds

target: T2, mouse DDR2 delta DSL-EJXM (stably …); test: flow cytometry on Ba/F3 cells expressing mouse DDR2 delta DSL-EJXM
Experimental: as §1, with “expresses mouse DDR2 fragment in which Discoidin-like (DSL) domain and extracellular juxtamembrane (EJXM) region were deleted from” for “expresses”, “DDR2 (mouse DDR2 delta DSL-EJXM).” for “DDR2.”
To map more detailed binding epitope of anti-DDR2 antibodies, fragment of mouse DDR2, in which discoidin-like (DSL) domain and extracellular juxtamembrane (EJXM) region (Gln201-Val393) are deleted from full length mouse DDR2 (mouse DDR2 delta DSL-EJXM) was made. Mouse DDR2 delta DSL-EJXM stably-expressing Ba/F3 cell line was prepared. Binding of the antibodies to this cell line was measured by flow cytometry and MFI value was acquired. Epitope of antibodies which can bind to full length mouse DDR2 but not to mouse DDR2 delta DSL-EJXM would be DSL-EJXM region. Epitope of antibodies which can bind to both full length mouse DDR2 and mouse DDR2 delta DSL-EJXM would be discoidin (DS) domain. In Table2, “Yes” means that tested antibody can bind to the cell line and “No” means that antibody cannot bind to the cell line.

Binder	binding result
B1	no binding
B2	no binding
B3	no binding
